Measurements from patent publication US20230310650A1.

Molecular target: human extracellular signal-regulated kinase 1/2 (Erk) (human) (UniProt P27361)
Assay: cell-based or functional assay

UniProt P27361, sequence (P27361 2-379 limits assumed, chain 1 of 2): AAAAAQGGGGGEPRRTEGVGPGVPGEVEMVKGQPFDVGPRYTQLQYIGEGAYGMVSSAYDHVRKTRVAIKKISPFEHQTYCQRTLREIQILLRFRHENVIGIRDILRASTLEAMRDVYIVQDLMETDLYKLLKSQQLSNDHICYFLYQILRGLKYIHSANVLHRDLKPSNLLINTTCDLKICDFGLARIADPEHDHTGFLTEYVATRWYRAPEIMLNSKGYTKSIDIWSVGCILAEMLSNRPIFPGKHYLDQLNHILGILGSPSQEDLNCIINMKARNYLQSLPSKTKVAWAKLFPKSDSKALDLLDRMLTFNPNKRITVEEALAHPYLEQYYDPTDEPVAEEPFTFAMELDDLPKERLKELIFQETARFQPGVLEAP
UniProt P27361, sequence (P28482 2-360 limits assumed, chain 2 of 2, further chain): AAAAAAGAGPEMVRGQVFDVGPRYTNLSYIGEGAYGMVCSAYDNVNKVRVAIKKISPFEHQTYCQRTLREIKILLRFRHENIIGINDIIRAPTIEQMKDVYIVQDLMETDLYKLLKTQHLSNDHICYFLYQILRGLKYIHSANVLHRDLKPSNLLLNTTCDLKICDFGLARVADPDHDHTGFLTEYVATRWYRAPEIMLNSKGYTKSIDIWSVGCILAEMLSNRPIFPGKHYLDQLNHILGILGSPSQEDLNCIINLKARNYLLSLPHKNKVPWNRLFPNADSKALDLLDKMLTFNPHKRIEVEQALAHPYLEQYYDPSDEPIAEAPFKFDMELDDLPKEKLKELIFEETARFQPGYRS

MAPK phosphothreonine lyase OspF of Shigella flexneri, expressed from pGB4 as a fusion to TEM-1 (from UniProt Q8VSP9 1-239)
decrease in p-Erk percentages of live t-Erk positive T cells (flow cytometry) after infection with E. coli TOP10 pGB4: > 60%
